Test results taken from patent US20240317858A1 (Adimab, published 2024).

Tests used:
[1] = target: T1, Human CD3εδ Fc heterodimer (Hu CD3ε Fc + CD3δ Fc-HIS) (human, UniProt P07766 22-126; P04234 22-100); assay: SPR (Biacore), Fab over immobilized CD3εδ Fc, pH 6.0
T1 construct: range 22-126;range 22-100; Made in HEK 293 cells with a heterologous signal peptide; also called Hu CD3εδ-Fc; CD3εδ Fc-HIS heterodimer; not shown: Fc; Fc followed by HIS tag
Method: (§1) Anti-CD3 antibodies A001-A005, V002, V004, V007, V009, V010, V013, and V014-V019 were produced in CHO cells, and Fab fragments were generated from IgG1 antibodies by papain digestion and purification as described in Example 2. Monovalent binding affinity at pH 7.4 and pH 6.0 was measured via surface plasmon resonance (SPR). Briefly, human or cynomolgus CD3εδ Fe heterodimer produced as described in Example 2 was immobilized to a CM5 sensor chip in a Biacore® X100 (Cytiva, previously GE Healthcare Life Sciences) to a response level of ˜500 RUs. Fabs were then injected at 3-fold increasing concentrations, ranging from 0.74-180 nM. The sensor chip was doubly regenerated between cycles using 0.35 M EDTA and 0.1 M NaOH. The resulting data were double reference subtracted and fit to a 1:1 binding model using Biacore® Evaluation Software.

[2] = target: T2, Cynomolgus CD3εδ Fc heterodimer (Cy CD3ε Fc + CD3δ Fc-HIS) (cynomolgus, UniProt Q95LI5 22-117; Q95LI8 22-100); assay: as above
T2 construct: range 22-117;range 22-100; Made in HEK 293 cells with a heterologous signal peptide; also called Cy CD3εδ-Fc; cyno CD3εδ Fc; not shown: Fc; Fc followed by HIS tag
Method: as §1

[3] = target: T1, Human CD3εδ Fc heterodimer (Hu CD3ε Fc …); assay: BLI (Octet), Fab monovalent, pH 6.0
Method: (§2) ForteBio KD measurements (Biolayer interferometry; BLI). ForteBio affinity measurements were performed generally as previously described (Estep, P., et al., High throughput solution-based measurement of antibody-antigen affinity and epitope binning. MAbs, 2013. 5(2): p. 270-8.). Briefly, ForteBio affinity measurements were performed by loading IgGs or CD3εδ Fe-HIS heterodimer onto AHC sensors. Sensors were equilibrated off-line in assay buffer for 30 min and then monitored on-line for 60 seconds for baseline establishment. Sensors with loaded IgGs were exposed to 100 nM antigen (e.g., CD3) for 3 min, afterwards they were transferred to assay buffer for 10 min for off-rate measurement. Sensors loaded with CD3εδ Fe-HIS heterodimer were exposed to 100 nM anti-CD3 Fab for 3 min, afterwards they were transferred to assay buffer for 3 min or 10 min for off-rate measurement. Kinetics were analyzed using the 1:1 binding model. For measuring binding at different pHs, measurements were performed at pre-determined pHs (e.g., pH 7.4 and pH 6.0).
(§3) Anti-CD3 antibodies A001-A005, V002, V004, V007, V009, V010, V013, and V014-V019 were produced as IgG1s in CHO cells, and Fab fragments were generated from IgG1 antibodies by papain digestion and purification as described in Example 2. Human, cynomolgus, rhesus, and mouse CD3εδ Fc heterodimers were produced, and monovalent binding affinity and avidity at pH 7.4 and pH 6.0 were measured using the Octet® HTX instrument (ForteBio) as described in Example 2.

[4] = target: T2, Cynomolgus CD3εδ Fc heterodimer (Cy …); assay: BLI (Octet), Fab monovalent, pH 6.0
Method: as §2, §3

[5] = target: T1, Human CD3εδ Fc heterodimer (Hu CD3ε Fc …); assay: BLI (Octet), Fab monovalent, pH 7.4
Method: as §2, §3

[6] = target: T2, Cynomolgus CD3εδ Fc heterodimer (Cy …); assay: BLI (Octet), Fab monovalent, pH 7.4
Method: as §2, §3

[7] = target: T3, Rhesus CD3εδ Fc heterodimer (rhesus); assay: BLI (Octet), Fab monovalent, pH 7.4
T3 construct: extracellular domain; also called Rh CD3εδ-Fc
Method: as §2, §3

[8] = target: T1, Human CD3εδ Fc heterodimer (Hu CD3ε Fc …); assay: SPR (Biacore), Fab over Hu CD3εδ-Fc; sensorgram inset tied by a line to the filled square (parent antibody) labelled A001; pH not given on the sheet
[9] = target: T1, Human CD3εδ Fc heterodimer (Hu CD3ε Fc …); assay: SPR (Biacore), Fab over immobilized CD3εδ Fc, pH 7.4
Method: as §1

[10] = target: T2, Cynomolgus CD3εδ Fc heterodimer (Cy …); assay: as above
Method: as §1

[11] = target: T1, Human CD3εδ Fc heterodimer (Hu CD3ε Fc …); assay: BLI (Octet), CD3εδ Fc on AHC sensor, 100 nM Fab
Method: (§4) Affinity of the anti-CD3 antibodies for CD3 was determined by measuring their kinetic constants (kₒₙ, koff, KD) on ForteBio Octet®. ForteBio affinity measurements were performed generally as previously described (Estep et al., MAbs. 2013 5(2):270-8). […] Sensors were equilibrated off-line in assay buffer for 30 minutes and then monitored on-line for 60 seconds for baseline establishment. For monovalent binding measurement, sensors with loaded CD3εδ Fc were exposed to 100 nM anti-CD3 Fab, as further described in Example 2 below] for 3 minutes, afterwards they were transferred to assay buffer for 3 minutes for off-rate measurement. Kinetics data were fit using a 1:1 binding model in the data analysis software provided by ForteBio.

[12] = target: T2, Cynomolgus CD3εδ Fc heterodimer (Cy …); assay: BLI (Octet), CD3εδ Fc on AHC sensor, 100 nM Fab
Method: as §4

[13] = target: T1, Human CD3εδ Fc heterodimer (Hu CD3ε Fc …); assay: SPR (Biacore), Fab over Hu CD3εδ-Fc; sensorgram inset labelled V013, tied by a line to an open square (PSR-optimized antibody); pH not given on the sheet
[14] = target: T4, Human CD3 on CD3+ Jurkat cells (human, UniProt P07766 23-207); assay: flow cytometry, Fab titration
T4 construct: whole, on cells; Target is the endogenous CD3 complex on cells; also called Human CD3+ Jurkat cells
Method: Further FACS analysis was conducted using 3-fold serial dilutions of anti-CD3 antibody Fab fragments. Fab fragments were generated from whole IgG antibodies by papain digestion and purified over KappaSelect or CaptureSelect IgG-CH1 (GE Healthcare LifeSciences) before preparation of serial dilutions. Binding to human CD3+ Jurkat cells and Cynomolgus monkey CD3 HSC-F cells was assessed with each diluted sample and results were used to build a titration curve and calculate half maximal effective concentration (EC50) values for Fab binding.

[15] = target: T1, Human CD3εδ Fc heterodimer (Hu CD3ε Fc …); assay: SPR (Biacore), Fab over Hu CD3εδ-Fc; sensorgram inset tied by a line to the filled square (parent antibody) labelled A002; pH not given on the sheet
[16] = target: T1, Human CD3εδ Fc heterodimer (Hu CD3ε Fc …); assay: SPR (Biacore), Fab over Hu CD3εδ-Fc; sensorgram inset labelled V007, tied by a line to an open square (PSR-optimized antibody); pH not given on the sheet

T1 sequence (P07766 22-126, stated change not applied, form in doubt, chain 1 of 2): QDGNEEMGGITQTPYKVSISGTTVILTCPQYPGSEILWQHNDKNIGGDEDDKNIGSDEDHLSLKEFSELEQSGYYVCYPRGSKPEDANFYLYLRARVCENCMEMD
T1 sequence (P04234 22-100, stated change not applied, form in doubt, chain 2 of 2): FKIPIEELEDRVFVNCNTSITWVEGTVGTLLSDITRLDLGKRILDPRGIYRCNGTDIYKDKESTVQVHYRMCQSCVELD
T2 sequence (Q95LI5 22-117, stated change not applied, form in doubt, chain 1 of 2): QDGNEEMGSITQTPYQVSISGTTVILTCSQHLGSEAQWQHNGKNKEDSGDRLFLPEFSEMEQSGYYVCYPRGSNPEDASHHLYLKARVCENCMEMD
T2 sequence (Q95LI8 22-100, stated change not applied, form in doubt, chain 2 of 2): as the sequence (P04234 22-100, stated change not applied, form in doubt, chain 2 of 2) above, with I5V, N15K, I20V, S32T, D33N, I34N, T64A, S74N counted along it
T4 sequence (P07766 23-207): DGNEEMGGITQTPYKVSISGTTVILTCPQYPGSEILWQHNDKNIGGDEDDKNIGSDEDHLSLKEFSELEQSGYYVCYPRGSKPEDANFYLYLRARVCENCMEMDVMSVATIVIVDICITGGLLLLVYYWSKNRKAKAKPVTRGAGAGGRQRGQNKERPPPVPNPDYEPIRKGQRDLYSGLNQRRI

Kd [1] [nM] | Kd [2] [nM] | Kd [3] [nM] | Kd [4] [nM] | Kd [5] [nM] | Kd [6] [nM] | Kd [7] [nM] | Kd [8] [nM] | Kd [9] [nM] | Kd [10] [nM] | Kd [11] [nM] | Kd [12] [nM] | Kd [13] [nM] | EC50 [14] [nM] | Kd [15] [nM] | Kd [16] [nM] | Binder
1.3 | 1.9 | 5.8 | 5.9 | 6 | 5.9 | 6.1 | 2 | 1.1 | 1.1 | 2.81 | 2.9 | – | – | – | – | Antibody No. A001 (ADI-26906) Fab (Fab, V domains shown, Fab by papain digestion of the IgG1) VH: QVQLVQSGAEVKKPGASVKVSCKASGFNIKDYYMHWVRQAPGQRLEWMGWIDLENANTIYDAKFQGRVTITRDTSASTAYMELSSLRSEDTAVYYCARDAYGRYFYDVWGQGTLVTVSS VL: DIVMTQSPDSLAVSLGERATINCKSSQSLLNARTGKNYLAWYQQKPGQPPKLLIYWASTRESGVPDRFSGSGSGTDFTLTISSLQAEDVAVYYCKQSYSRRTFGGGTKVEIK
1.6 | 0.27 | 1.6 | 1.9 | 2.4 | 2.4 | 2.5 | – | 0.18 | 0.22 | 1.16 | 1.23 | 0.681 | – | – | – | Antibody No. V013 (ADI-70330) Fab (Fab, V domains shown, Fab by papain digestion of the IgG1) VH: QVQLVQSGAEVKKPGASVKVSCKASGFNIDDYYMHWVRQAPGQRLEWIGWIDLENANTVDDAKFQGRVTITRDTSASTAYMELSSLRSEDTAVYYCARDAYGRYFYDVWGQGTLVTVSS VL: DIVMSQSPDSLAVSLGERATINCKSSQSLLNARTGKNYLAWYQQKPGQPPKLLIYWASTRSSGVPDRFSGSGSGTDFTLTISSLQAEDVAVYYCVQSYFRRTFGGGTKVEIK
– | – | – | – | – | – | – | – | – | – | 0.82 | 0.86 | – | 2.77 | – | – | Antibody No. V011 (ADI-70328) Fab (Fab, V domains shown, Fab by papain digestion of the IgG1) VH: QVQLVQSGAEVKKPGASVKVSCKASGFNIDDYYMHWVRQAPGQRLEWIGWIDLENDNTVYDAKFQGRVTITRDTSASTAYMELSSLRSEDTAVYYCARDAYGRYFYDVWGQGTLVTVSS VL: DIVMSQSPDSLAVSLGERATINCKSSQSLLNARTGKNYLAWYQQKPGQPPKLLIYWASTRSSGVPDRFSGSGSGTDFTLTISSLQAEDVAVYYCVQSYFRRTFGGGTKVEIK
0.31 | 0.2 | 1.3 | 1.7 | 1 | 1.3 | 1.2 | – | 0.059 | 0.076 | 0.5 | 0.57 | – | – | 0.244 | – | Antibody No. A002 (ADI-50024) Fab (Fab, V domains shown, Fab by papain digestion of the IgG1) VH: QVQLVQSGAEVKKPGASVKVSCKASGFNIKDYYMHWVRQAPGQRLEWIGWIDLENANTVYDAKFQGRVTITRDTSASTAYMELSSLRSEDTAVYYCARDAYGRYFYDVWGQGTLVTVSS VL: DIVMSQSPDSLAVSLGERATINCKSSQSLLNARTGKNYLAWYQQKPGQPPKLLIYWASTRSSGVPDRFSGSGSGTDFTLTISSLQAEDVAVYYCVQSYFRRTFGGGTKVEIK
2.8 | 2.1 | 6.9 | 6.9 | 7.4 | 8.7 | 9.2 | – | 4 | 2.7 | 5.39 | 5.03 | – | – | – | 3.7 | Antibody No. V007 (ADI-67450) Fab (Fab, V domains shown, Fab by papain digestion of the IgG1) VH: QVQLVQSGAEVKKPGASVKVSCKASGFNIDDYYMHWVRQAPGQRLEWMGWIDLENANTIDDAKFQGRVTITRDTSASTAYMELSSLRSEDTAVYYCARDAYGRYFYDVWGQGTLVTVSS VL: DIVMTQSPDSLAVSLGERATINCKSSQSLLNARTGKNYLAWYQQKPGQPPKLLIYWASTRESGVPDRFSGSGSGTDFTLTISSLQAEDVAVYYCKQSYSRRTFGGGTKVEIK
